Key:
Test in all cases: ITC
[1] = target: yeast Hsp90 (wild type, His-tagged) (yeast) (UniProt P02829)
[2] = target: yeast Hsp90 M705V (His-tagged) (yeast) (UniProt P02829)
[3] = target: Tah1 (TPR-containing protein associated with Hsp90) (S. cerevisiae) (UniProt P25638)
Tah1 (TPR-containing protein associated with Hsp90) (S. cerevisiae), sequence (P25638 whole entry): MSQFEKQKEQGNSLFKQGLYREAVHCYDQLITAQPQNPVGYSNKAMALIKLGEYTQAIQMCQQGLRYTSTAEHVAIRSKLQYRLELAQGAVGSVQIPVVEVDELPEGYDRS

mouse CHIP (C-terminal of Hsp70-interacting protein), sequence (Q9WUD1 whole entry): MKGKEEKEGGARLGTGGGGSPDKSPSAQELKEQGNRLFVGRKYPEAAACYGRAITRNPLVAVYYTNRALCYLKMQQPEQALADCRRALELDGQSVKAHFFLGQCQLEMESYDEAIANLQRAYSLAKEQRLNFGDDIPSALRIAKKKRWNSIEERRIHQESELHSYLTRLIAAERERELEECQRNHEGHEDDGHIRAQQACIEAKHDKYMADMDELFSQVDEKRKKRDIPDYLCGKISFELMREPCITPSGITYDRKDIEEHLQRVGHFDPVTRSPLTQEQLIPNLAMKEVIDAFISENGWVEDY
C-terminal domain of Sti1 (cSti1), His-tagged (domain or fragment), sequence (P15705 133-581): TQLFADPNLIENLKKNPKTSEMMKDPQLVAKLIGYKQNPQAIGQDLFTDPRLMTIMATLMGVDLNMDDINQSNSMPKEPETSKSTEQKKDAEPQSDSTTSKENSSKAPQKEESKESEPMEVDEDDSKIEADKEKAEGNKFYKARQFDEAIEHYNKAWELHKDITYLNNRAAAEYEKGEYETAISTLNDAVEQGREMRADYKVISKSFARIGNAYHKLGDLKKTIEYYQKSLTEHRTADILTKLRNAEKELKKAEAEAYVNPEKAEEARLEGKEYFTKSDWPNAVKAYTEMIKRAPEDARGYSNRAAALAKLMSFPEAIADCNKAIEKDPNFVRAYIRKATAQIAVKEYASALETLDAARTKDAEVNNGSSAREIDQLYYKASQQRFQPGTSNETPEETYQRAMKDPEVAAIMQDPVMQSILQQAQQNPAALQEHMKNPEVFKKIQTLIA

| Substance | stoichiometry N [1] | Kd [2] | stoichiometry N [2] | Kd [3] | stoichiometry N [3] |
| --- | --- | --- | --- | --- | --- |
| C-terminal domain of Sti1 (cSti1), His-tagged (domain or fragment) | 0.88 |  |  |  |  |
| mouse CHIP (C-terminal of Hsp70-interacting protein) (from UniProt Q9WUD1 1-304) (natural protein) | 1.2 | 6.7 µM | 1.1 |  |  |
| … decapeptide (Ssa1 C-terminal decapeptide, Val at -4 replaced by Met) |  |  |  | 4.2 µM | 0.98 |
| … decapeptide (yeast Hsp90 C-terminal decapeptide, Met at -4 replaced by Val) |  |  |  | 9.8 µM | 1.1 |

Now from value to substance:

| stoichiometry N [1] | Kd [2] | stoichiometry N [2] | Kd [3] | stoichiometry N [3] | Substance |
| --- | --- | --- | --- | --- | --- |
|  |  |  | 14.8 µM | 1.1 | … decapeptide (Ssa1 C-terminal decapeptide, Val at -4 replaced by Ala) |
|  |  |  | 3.3 µM | 0.89 | … decapeptide (yeast Hsp90 C-terminal decapeptide, Met at -4 replaced by Ala) |
|  |  |  | 0.75 µM | 0.81 | … decapeptide (yeast Hsp90 C-terminal decapeptide, TE replaced by Ala-Ala) |

Reference: PMC2865030
